Data from patent US10117916B2, “Peptides and combination of peptides for use in immunotherapy against CLL and other cancers” (immatics biotechnologies GmbH, priority 2015, dated 2018).

Target: HLA-A*02:01 (Homo sapiens, UniProt P04439, D140Y/D185E/D98H/E176V/E277Q/G131W/G231S/I119V/I121R/I166T/I218V/L300P/L318F/N151K/N90K/P208A/P217A/Q86G/Q94H/R138H/R169H/T345S)
Test: MHC binding assay: UV-ligand exchange with β2m ELISA (peptide exchange yield)
Conditions: MHC class I binding score; binding to HLA-A*02:01 ranged by peptide exchange yield (UV-ligand exchange, β2m ELISA)
Source text: Candidate peptides for T cell based therapies according to the present invention were further tested for their MHC binding capacity (affinity). The individual peptide-MHC complexes were produced by UV-ligand exchange, where a UV-sensitive peptide is cleaved upon UV-irradiation, and exchanged with the peptide of interest as analyzed. Only peptide candidates that can effectively bind and stabilize the peptide-receptive MHC molecules prevent dissociation of the MHC complexes. To determine the yield of the exchange reaction, an ELISA was performed based on the detection of the light chain (β2m) of stabilized MHC complexes. The assay was performed as generally described in Rodenko et al. (Rodenko et al., 2006).
96 well MAXISorp plates (NUNC) were coated over night with 2 ug/ml streptavidin in PBS at room temperature, washed 4× and blocked for 1 h at 37° C. in 2% BSA containing blocking buffer. Refolded HLA-A*02:01/MLA-001 monomers served as standards, covering the range of 15-500 ng/ml. Peptide-MHC monomers of the UV-exchange reaction were diluted 100 fold in blocking buffer. Samples were incubated for 1 h at 37° C., washed four times, incubated with 2 ug/ml HRP conjugated anti-β2m for 1 h at 37° C., washed again and detected with TMB solution that is stopped with […]. Absorption was measured at 450 nm. Candidate peptides that show a high exchange yield (preferably higher than 50%, most preferred higher than 75%) are generally preferred for a generation and production of antibodies or fragments thereof, and/or T cell receptors or fragments thereof, as they show sufficient avidity to the MHC molecules and prevent dissociation of the MHC complexes.

Q: Which “Peptide Exchange” value does the source give for “229 (FLLNLQNCHL; listed as Homo sapiens) [compound 229]” here?
A: ″++++″ (≥75% = ++++)

Q: “195 (YLGGFALSV; listed as Homo sapiens) [compound 195]” was tested. Which “Peptide Exchange” value did it give?
A: ″++++″ (≥75% = ++++)

Q: With “248 (KTVEPPISQV; listed as Homo sapiens) [compound 248]” as the substance, how does the “Peptide Exchange” value read?
A: ″++″ (≥20% = ++)

Q: With “306 (VVAEELENV; listed as Homo sapiens) [compound 306]” as the substance, how does the “Peptide Exchange” value read?
A: ″++″ (≥20% = ++)

Q: Which “Peptide Exchange” value does the source give for “299 (ILEENIPVL; listed as Homo sapiens) [compound 299]” here?
A: ″+++″ (≥50 = +++)

Q: “187 (VMDTHLVNI; listed as Homo sapiens) [compound 187]” was tested. Which “Peptide Exchange” value did it give?
A: ″++++″ (≥75% = ++++)

Q: “286 (FLLEDLSQKL; listed as Homo sapiens) [compound 286]” was tested. Which “Peptide Exchange” value did it give?
A: ″+++″ (≥50 = +++)

Q: “353 (ATPMPTPSV; listed as Homo sapiens) [compound 353]” was tested. Which “Peptide Exchange” value did it give?
A: ″++″ (≥20% = ++)

Q: How did the “Peptide Exchange” value turn out when “234 (GLDDAEYAL; listed as Homo sapiens) [compound 234]” was run?
A: ″++″ (≥20% = ++)

Q: Which “Peptide Exchange” value does the source give for “169 (TLLLGLTEV; listed as Homo sapiens) [compound 169]” here?
A: ″+++″ (≥50 = +++)

Q: Which “Peptide Exchange” value does the source give for “107 (ILYNLYDLL; listed as Homo sapiens) [compound 107]” here?
A: ″+++″ (≥50 = +++)

Q: With “359 (FMQDPMEVFV; listed as Homo sapiens) [compound 359]” as the substance, how does the “Peptide Exchange” value read?
A: ″+++″ (≥50 = +++)

Q: Which “Peptide Exchange” value does the source give for “376 (VLYNQRVEEI; listed as Homo sapiens) [compound 376]” here?
A: ″+++″ (≥50 = +++)

Q: “39 (FLDALLTDV; listed as Homo sapiens) [compound 39]” was tested. Which “Peptide Exchange” value did it give?
A: ″+++″ (≥50 = +++)

Q: With “72 (GLLDAGKMYV; listed as Homo sapiens) [compound 72]” as the substance, how does the “Peptide Exchange” value read?
A: ″+++″ (≥50 = +++)

Q: “43 (FLLGPEALSFA; listed as Homo sapiens) [compound 43]” was tested. Which “Peptide Exchange” value did it give?
A: ″++++″ (≥75% = ++++)

Q: How did the “Peptide Exchange” value turn out when “356 (FLHDHQAEL; listed as Homo sapiens) [compound 356]” was run?
A: ″++″ (≥20% = ++)

Q: With “15 (ALPEVSVEA; listed as Homo sapiens) [compound 15]” as the substance, how does the “Peptide Exchange” value read?
A: ″+++″ (≥50 = +++)

Q: “52 (FLVETGFLHV; listed as Homo sapiens) [compound 52]” was tested. Which “Peptide Exchange” value did it give?
A: ″++++″ (≥75% = ++++)

Q: For “296 (FIAPTGHSL; listed as Homo sapiens) [compound 296]”, which “Peptide Exchange” value is on record?
A: ″++″ (≥20% = ++)

Q: “294 (ALLDQLHTLL; listed as Homo sapiens) [compound 294]” was tested. Which “Peptide Exchange” value did it give?
A: ″++++″ (≥75% = ++++)

Q: How did the “Peptide Exchange” value turn out when “133 (YLLSGDISEA; listed as Homo sapiens) [compound 133]” was run?
A: ″+++″ (≥50 = +++)

Q: With “158 (SLPEAPLDV; listed as Homo sapiens) [compound 158]” as the substance, how does the “Peptide Exchange” value read?
A: ″+++″ (≥50 = +++)

Q: How did the “Peptide Exchange” value turn out when “116 (LLIGATMQV; listed as Homo sapiens) [compound 116]” was run?
A: ″+++″ (≥50 = +++)

Q: With “103 (KLGGTPAPA; listed as Homo sapiens) [compound 103]” as the substance, how does the “Peptide Exchange” value read?
A: ″++″ (≥20% = ++)

Q: With “262 (SLWNAGTSV; listed as Homo sapiens) [compound 262]” as the substance, how does the “Peptide Exchange” value read?
A: ″+++″ (≥50 = +++)

Q: How did the “Peptide Exchange” value turn out when “151 (SLFDSAYGA; listed as Homo sapiens) [compound 151]” was run?
A: ″+++″ (≥50 = +++)

Q: For “235 (GLDDLLLFL; listed as Homo sapiens) [compound 235]”, which “Peptide Exchange” value is on record?
A: ″+++″ (≥50 = +++)

Q: Which “Peptide Exchange” value does the source give for “330 (VLMWEIYSL; listed as Homo sapiens) [compound 330]” here?
A: ″+++″ (≥50 = +++)

Q: How did the “Peptide Exchange” value turn out when “145 (SALDTITTV; listed as Homo sapiens) [compound 145]” was run?
A: ″+++″ (≥50 = +++)

Q: With “327 (VLIKWFPEV; listed as Homo sapiens) [compound 327]” as the substance, how does the “Peptide Exchange” value read?
A: ″++++″ (≥75% = ++++)

Q: “29 (AVLQAVTAV; listed as Homo sapiens) [compound 29]” was tested. Which “Peptide Exchange” value did it give?
A: ″+++″ (≥50 = +++)

Q: With “84 (GVMDVNTAL; listed as Homo sapiens) [compound 84]” as the substance, how does the “Peptide Exchange” value read?
A: ″++″ (≥20% = ++)

Q: For “374 (VLSVITEEL; listed as Homo sapiens) [compound 374]”, which “Peptide Exchange” value is on record?
A: ″+++″ (≥50 = +++)

Q: Which “Peptide Exchange” value does the source give for “76 (GLLRIIPYL; listed as Homo sapiens) [compound 76]” here?
A: ″+++″ (≥50 = +++)

Q: “351 (ALSEKLARL; listed as Homo sapiens) [compound 351]” was tested. Which “Peptide Exchange” value did it give?
A: ″+++″ (≥50 = +++)

Q: With “333 (VTLEFPQLIRV; listed as Homo sapiens) [compound 333]” as the substance, how does the “Peptide Exchange” value read?
A: ″+++″ (≥50 = +++)

Q: Which “Peptide Exchange” value does the source give for “196 (YLLLQTYVL; listed as Homo sapiens) [compound 196]” here?
A: ″+″ (≥10% = +)

Q: With “245 (KIMDYSLLLGV; listed as Homo sapiens) [compound 245]” as the substance, how does the “Peptide Exchange” value read?
A: ″++++″ (≥75% = ++++)

Q: With “207 (IIADLDTTIMFA; listed as Homo sapiens) [compound 207]” as the substance, how does the “Peptide Exchange” value read?
A: ″+++″ (≥50 = +++)

Q: How did the “Peptide Exchange” value turn out when “252 (NLLDPGSSYLL; listed as Homo sapiens) [compound 252]” was run?
A: ″+++″ (≥50 = +++)

Q: For “19 (QVMEKLAAV; listed as Homo sapiens) [compound 19]”, which “Peptide Exchange” value is on record?
A: ″+++″ (≥50 = +++)

Q: With “375 (VLWFKPVEL; listed as Homo sapiens) [compound 375]” as the substance, how does the “Peptide Exchange” value read?
A: ″+++″ (≥50 = +++)

Q: Which “Peptide Exchange” value does the source give for “266 (TLLDQLDTQL; listed as Homo sapiens) [compound 266]” here?
A: ″++″ (≥20% = ++)

Q: For “265 (TLLADDLEIKL; listed as Homo sapiens) [compound 265]”, which “Peptide Exchange” value is on record?
A: ″+++″ (≥50 = +++)

Q: Which “Peptide Exchange” value does the source give for “324 (SLYSALQQA; listed as Homo sapiens) [compound 324]” here?
A: ″+++″ (≥50 = +++)

Q: Which “Peptide Exchange” value does the source give for “255 (YLFEEAISM; listed as Homo sapiens) [compound 255]” here?
A: ″+++″ (≥50 = +++)

Q: Which “Peptide Exchange” value does the source give for “344 (VLAFENPQV; listed as Homo sapiens) [compound 344]” here?
A: ″+++″ (≥50 = +++)

Q: With “340 (KLLEEICNL; listed as Homo sapiens) [compound 340]” as the substance, how does the “Peptide Exchange” value read?
A: ″++++″ (≥75% = ++++)

Q: Which “Peptide Exchange” value does the source give for “171 (TLVPPAALISI; listed as Homo sapiens) [compound 171]” here?
A: ″+++″ (≥50 = +++)

Q: How did the “Peptide Exchange” value turn out when “159 (SLQEEKLIYV; listed as Homo sapiens) [compound 159]” was run?
A: ″+++″ (≥50 = +++)

Q: With “379 (YLAELVTPIL; listed as Homo sapiens) [compound 379]” as the substance, how does the “Peptide Exchange” value read?
A: ″+++″ (≥50 = +++)

Q: With “315 (LVYEAPETV; listed as Homo sapiens) [compound 315]” as the substance, how does the “Peptide Exchange” value read?
A: ″+++″ (≥50 = +++)

Q: With “64 (KLLESVASA; listed as Homo sapiens) [compound 64]” as the substance, how does the “Peptide Exchange” value read?
A: ″+++″ (≥50 = +++)

Q: With “185 (VMDDQRDLI; listed as Homo sapiens) [compound 185]” as the substance, how does the “Peptide Exchange” value read?
A: ″++″ (≥20% = ++)

Q: For “74 (GLLRASFLL; listed as Homo sapiens) [compound 74]”, which “Peptide Exchange” value is on record?
A: ″++″ (≥20% = ++)

Q: For “363 (ITTEVVNELYV; listed as Homo sapiens) [compound 363]”, which “Peptide Exchange” value is on record?
A: ″+++″ (≥50 = +++)

Q: Which “Peptide Exchange” value does the source give for “73 (GLLEVISALQL; listed as Homo sapiens) [compound 73]” here?
A: ″+++″ (≥50 = +++)

Q: “111 (KLWNVAAPLYL; listed as Homo sapiens) [compound 111]” was tested. Which “Peptide Exchange” value did it give?
A: ″+++″ (≥50 = +++)

Q: “90 (VIADLGLIRV; listed as Homo sapiens) [compound 90]” was tested. Which “Peptide Exchange” value did it give?
A: ″+++″ (≥50 = +++)

Q: How did the “Peptide Exchange” value turn out when “342 (SLITPLQAV; listed as Homo sapiens) [compound 342]” was run?
A: ″+++″ (≥50 = +++)

Q: Which “Peptide Exchange” value does the source give for “372 (SLFGPLPGPGPALV; listed as Homo sapiens) [compound 372]” here?
A: ″+++″ (≥50 = +++)

Q: Which “Peptide Exchange” value does the source give for “346 (VLVQVSPSL; listed as Homo sapiens) [compound 346]” here?
A: ″+++″ (≥50 = +++)

Q: For “71 (GLKHDIARV; listed as Homo sapiens) [compound 71]”, which “Peptide Exchange” value is on record?
A: ″+++″ (≥50 = +++)
